Molecular target: APP蛋白 (amyloid precursor protein, APP)
Experiment: SPR

Sequence of APP蛋白 (amyloid precursor protein, APP) (chain, as listed by the source): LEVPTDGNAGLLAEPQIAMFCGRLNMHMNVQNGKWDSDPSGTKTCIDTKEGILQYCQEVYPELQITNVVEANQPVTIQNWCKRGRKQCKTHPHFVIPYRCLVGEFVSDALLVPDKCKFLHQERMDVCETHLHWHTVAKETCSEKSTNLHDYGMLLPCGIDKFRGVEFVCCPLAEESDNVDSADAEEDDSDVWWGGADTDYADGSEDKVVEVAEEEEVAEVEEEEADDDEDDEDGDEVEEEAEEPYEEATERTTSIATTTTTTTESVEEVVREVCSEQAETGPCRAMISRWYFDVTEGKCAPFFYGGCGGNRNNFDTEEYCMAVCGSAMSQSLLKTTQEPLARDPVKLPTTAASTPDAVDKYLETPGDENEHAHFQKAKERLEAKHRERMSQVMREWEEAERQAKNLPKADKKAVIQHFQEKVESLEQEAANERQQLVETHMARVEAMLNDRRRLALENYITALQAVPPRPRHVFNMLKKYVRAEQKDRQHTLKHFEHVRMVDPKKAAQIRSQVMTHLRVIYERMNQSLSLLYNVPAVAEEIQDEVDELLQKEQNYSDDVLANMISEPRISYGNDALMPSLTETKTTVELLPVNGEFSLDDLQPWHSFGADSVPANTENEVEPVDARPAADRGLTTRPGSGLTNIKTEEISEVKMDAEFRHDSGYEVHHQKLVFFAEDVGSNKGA

B1: 纳米抗体P2-10C (anti-APP nanobody P2-10C) (VHH)
VHH: DVQLQESGGGLVQPGGSLRLSCAASGIIFSGYYMSWVRQAPGKGPEWVSSINPSGSSTRYADSVKGRFTISRDNAKNTVYLQMYSLKPEDTALYYCSRSRDGLGDVRGQGTQVTVSS
notes: Monovalent alpaca VHH expressed from pET22b in E. coli BL21 and purified on Ni resin and by size exclusion; also called 抗APP的纳米抗体; 抗APP单域重链抗体
  Kd: 70 nM
  koff: 0.00921 s⁻¹
  kon: 130000 M⁻¹ s⁻¹

— patent CN115806612A (SHENZHEN KANGTI BIOMEDICAL TECH CO LTD, dated 2023)
